# Experimental data taken from the DeepSol protein solubility set.
# Test: soluble on expression in E. coli; label from the status in PepcDB or PDB records
row,Sequence,soluble on expression in E. coli
1,MGSSHHHHHHSSGLVPRGSHMALSRGLPRELAEAVAGGRVLVVGAGGIGCELLKNLVLTGFSHIDLIDLDTIDVSNLNRQFLFQKKHVGRSKAQVAKESVLQFYPKANIVAYHDSIMNPDYNVEFFRQFILVMNALDNRAARNHVNRMCLAADVPLIESGTAGYLGQVTTIKKGVTECYECHPKPTQRTFPGCTIRNTPSEPIHCIVWAKYLFNQLFGEEDADQEVSPDRADPEAAWEPTEAEARARACNEDGDIKRISTKEWAKSTGYDPVKLFTKLFKDDIRYLLTMDKLWRKRKPPVPLDWAEVQSQGEETNASDQQNEPQLGLKDQQVLDVKSYARLFSKSIETLRVHLAEKGDGAELIWDKDDPSAMDFVTSAANLRMHIFSMNMKSRFDIKSMAGNIIPAIATTNAVIAGLIVLEGLKILSGKIDQCRTIFLNKQPNPRKKLLVPCALDPPNPNCYVCASKPEVTVRLNVHKVTVLTLQDKIVKEKFAMVAPDVQIEDGKGTILISSEEGETEANNHKKLSEFGIRNGSRLQADDFLQDYTLLINILHSEDLGKDVEFEVVGDAPEKVGPKQAEDAAKSITNGSDDGAQPSTSTAQEQDDVLIVDSDEEDSSNNADVSEEERSRKRKLDEKENLSAKRSRIEQKEELDDVIALD,soluble
2,MGSSHHHHHHSSGLVPRGSHMASMAKMRAVDAAMYVLEKEGITTAFGVPGAAINPFYSAMRKHGGIRHILARHVEGASHMAEGYTRATAGNIGVCLGTSGPAGTDMITALYSASADSIPILCITGQAPRARLHKEDFQAVDIEAIAKPVSKMAVTVREAALVPRVLQQAFHLMRSGRPGPVLVDLPFDVQVAEIEFDPDMYEPLPVYKPAASRMQIEKAVEMLIQAERPVIVAGGGVINADAAALLQQFAELTSVPVIPTLMGWGCIPDDHELMAGMVGLQTAHRYGNATLLASDMVFGIGNRFANRHTGSVEKYTEGRKIVHIDIEPTQIGRVLCPDLGIVSDAKAALTLLVEVAQEMQKAGRLPCRKEWVADCQQRKRTLLRKTHFDNVPVKPQRVYEEMNKAFGRDVCYVTTIGLSQIAAAQMLHVFKDRHWINCGQAGPLGWTIPAALGVCAADPKRNVVAISGDFDFQFLIEELAVGAQFNIPYIHVLVNNAYLGLIRQSQRAFDMDYCVQLAFENINSSEVNGYGVDHVKVAEGLGCKAIRVFKPEDIAPAFEQAKALMAQYRVPVVVEVILERVTNISMGSELDNVMEFEDIADNAADAPTETCFMHYE,soluble
3,MGSSHHHHHHSSGLVPRGSHMDTTVPTFSLAELQQGLHQDEFRRCLRDKGLFYLTDCGLTDTELKSAKDLVIDFFEHGSEAEKRAVTSPVPTMRRGFTGLESESTAQITNTGSYSDYSMCYSMGTADNLFPSGDFERIWTQYFDRQYTASRAVAREVLRATGTEPDGGVEAFLDCEPLLRFRYFPQVPEHRSAEEQPLRMAPHYDLSMVTLIQQTPCANGFVSLQAEVGGAFTDLPYRPDAVLVFCGAIATLVTGGQVKAPRHHVAAPRRDQIAGSSRTSSVFFLRPNADFTFSVPLARECGFDVSLDGETATFQDWIGGNYVNIRRTSKA,soluble
4,MGSSHHHHHHSSGLVPRGSHMEEDGGIIRRIQTRGEGYAKPNEGAIVEVALEGYYKDKLFDQRELRFEIGEGENLDLPYGLERAIQRMEKGEHSIVYLKPSYAFGSVGKEKFQIPPNAELKYELHLKSFEKAKESWEMNSEEKLEQSTIVKERGTVYFKEGKYKQALLQYKKIVSWLEYESSFSNEEAQKAQALRLASHLNLAMCHLKLQAFSAAIESCNKALELDSNNEKGLSRRGEAHLAVNDFELARADFQKVLQLYPNNKAAKTQLAVCQQRIRRQLAREKKLYANMFERLAEEENKAKAEASSGDHPTDTEMKEEQKSNTAGSQSQVETEA,soluble
5,MGSSHHHHHHSSGLVPRGSHMNAPIETDVLILGGGPVGMALALDLAHRQVGHLVVEQTDGTITHPRVGTIGPRSMELFRRWGVAKQIRTAGWPGDHPLDAAWVTRVGGHEVYRIPLGTADTRATPEHTPEPDAICPQHWLAPLLAEAVGERLRTRSRLDSFEQRDDHVRATITDLRTGATRAVHARYLVACDGASSPTRKALGIDAPPRHRTQVFRNILFRAPELRSLLGERAALFFFLMLSSSLRFPLRALDGRGLYRLTVGVDDASKSTMDSFELVRRAVAFDTEIEVLSDSEWHLTHRVADSFSAGRVFLTGDAAHTLSPSGGFGMNTGIGSAADLGWKLAATLRGWAGPGLLATYEEERRPVAITSLEEANVNLRRTMDRELPPGLHDDGPRGERIRAAVAEKLERSGARREFDAPGIHFGHTYRSSIVCGEPETEVATGGWRPSARPGARAPHAWLTPTTSTLDLFGRGFVLLSFGTTDGVEAVTRAFADRHVPLETVTCHAPEIHALYERAHVLVRPDGHVAWRGDHLPAELGGLVDKVRGAA,soluble
6,MGSSHHHHHHSSGLVPRGSHMSELLATYLLTEPGADTEKKAEQIATGLTVGSWTDLPLVKQEQMQKHKGRVIKVEEREGTAASEKQAVITIAYPEINFSQDIPALLTTVFGKLSLDGKIKLIDLHFSEAFKRALPGPKFGVYGIRKLLGEFERPLLMSIFKGVIGRDLSDIKEQLRQQALGGVDLIKDDEIFFETGLAPFETRIAEGKQILKETYEQTGHKTLYAVNLTGRTADLKDKARRAAELGADALLFNVFAYGLDVMQGLAEDPEIPVPIMAHPAVSGAFTSSPFYGFSHALLLGKLNRYCGADFSLFPSPYGSVALPRADALAIHEECVREDAFNQTFAVPSAGIHPGMVPLLMRDFGIDHIINAGGGVHGHPNGAQGGGRAFRAIIDAVLEAQPIDEKAEQCKDLKLALDKWGKAEAV,soluble
7,MGSSHHHHHHSSGLVPRGSHMVHAFPHGTTATPTAIAVPPSLRLPVIEAAFPRQLHPYWPKLQETTRTWLLEKRLMPADKVEEYADGLCYTDLMAGYYLGAPDEVLQAIADYSAWFFVWDDRHDRDIVHGRAGAWRRLRGLLHTALDSPGDHLHHEDTLVAGFADSVRRLYAFLPATWNARFARHFHTVIEAYDREFHNRTRGIVPGVEEYLELRRLTFAHWIWTDLLEPSSGCELPDAVRKHPAYRRAALLSQEFAAWYNDLCSLPKEIAGDEVHNLGISLITHHSLTLEEAIGEVRRRVEECITEFLAVERDALRFADELADGTVRGKELSGAVRANVGNMRNWFSSVYWFHHESGRYMVDSWDDRSTPPYVNNEAAGEK,soluble
8,MGSSHHHHHHSSGRENLYFQGMADQDQLKALRLRIDSLDEKLLELISERARCAQDVARVKTQTLGEGEAPVFYRPEREAWVLKHIMQLNKGPLDNEEVARLFREIMSSCLALEQPLKVAYLGPEGTFTQAAALKHFGNAVISTPMAAIDEVFREVAAGAVNFGVVPVENSTEGAVNHTLDSFLEHDMVICGEVELRIHHHLLVGETTKTDNITRIYSHAQSLAQCRKWLDSHYPSVERVAVSSNADAAKRVKSEWNSAAIAGDMAASLYDLSKLHEKIEDRPDNSTRFLIIGNQEVPPTGDDKTSIIVSMRNKPGALHELLVPFHNNGIDLTRIETRPSRSGKWTYVFFIDFVGHHKEPLIKDVLEKIGQEAVALKVLGSYPKAVL,soluble
9,MGSTKSRPLRDANGTPKFRHESIACVFRVHPQQGVDVLTVIRSRPPYADMSALPSGALETNEMLKDACLRHLSLSGVHPSMVSHIEQLDTRSAIDRDPYDRTIATAHLCLIPWDIDPSVTNGSFTPLVDLDELAFDHKNIIEQGLYRLRAKLSYSNIGFALAPRLFTISDLAKTYSHVLTYNVSPTNLQRILTRRNQLQPTTARAIGSGRPARLFTFTTDRLEITDPFATLKPTESRKCKS,not soluble
10,MGSVRKASAWLGLVDDNNDDERYYDDDYSEGPESGDAWVTDPRVKVASDVAEEKGRRIATVTPDSFRDARAIGELFRDGVPVIVNLTAMEGTDAKRVVDFAAGLIFGLRGSIERVSTRVFLLSPADTQVISGESAAHRSDGFFNQSLEHHHHHH,not soluble
11,MGTEFNGLFDEWAHTYDSFVQGEDIQYKEVFAHYEDILEDVVNKSFGNVLEFGVGTGNLTNKLLLAGRTVYGIEPSREMRMIAKEKLPKEFSITEGDFLSFEVPTSIDTIVSTYAFHHLTDDEKNVAIAKYSQLLNKGGKIVFADTIFADQDAYDKTVEAAKQRGFHQLANDLQTEYYTRIPVMQTIFENNGFHVTFTRLNHFVWVMEATKQLEHHHHHH,soluble
12,MGTVLCSCLLGDNAKVRLKLSKMLEEEASGFYPDVLPEGSVSICEVEMKGCRREFYADRRSEEIEIGTPVIVEADGGFDMGVVYSTGRIALRKLQLKGLVSEVEKLPAIMRRATEEEVREFTEIRKREPEIREACLKRIERHQLDMKLVDIDLRLDQQKLSVYYTATHRIDFRGLVRDLAGEFKARIQMVQITTREEARRTNAQGSCGCALCCSTWMQKIHSNPFAEKPQMPDSMNGDNFSFNTIGLCNRPKCCLGFSKTNGKNGNCHHGKVRQNGWPSVGTTFTVRDGNAVVEGVDQQKKSIWIRYVSTGQKRRISLDQYNNMAGKRQGGQALEHHHHHH,not soluble
13,MGTYKKEKSRIGREGANEKKPGNLRVKGENFYRNAKDVARVNMYRGGKAKYNAAGELVRAAEFQSSEVPKARIQPDRRWFNNTRVIAQPTLTQFREAMGQKLNDPYQVLLRRNKLPMSLLQENTEIPKVRVLESEPFENTFGPKSQRKRPKISFDSVAELAKESDEKQNAYEEKIEERILANPDESDDVMLAARDAIFSKGQSKRIWNELYKVIDSSDVLIQVLDARDPVGTRCGTVERYLRNEASHKHMILVLNKVDLVPTSVAAAWVKILAKEYPTIAFHASINNSFGKGSLIQILRQFASLHSDKKQISVGLIGFPNAGKSSIINTLRKKKVCNVAPIPGETKVWQYVALMKRIFLIDCPGIVPPSSNDSDAELLLKGVVRVENVSNPEAYIPTVLSRCKVKHLERTYEISGWNDSTEFLAKLAKKGGRLLKGGEPDEASVAKMVLNDFMRGKIPWFIGPKGLSSSNDEINSSQKVATQQTEGSDQDGEEAEEEWHGISDDGKADESESTKPVAEGSASESTDESAVDDNKNRS,not soluble
14,MGWKMQATVTEIGKHAIDDSEKMIILFGETATDTLKQHAVIQSFPEKDQVTLAEGDHLKIGDTNYTITKVGSFANSNLQSIAHSTLIFADAPTDEDDVIRNGVYLTPHQLPKITIGTTIDYLVNGA,soluble
15,MGYFSNAQRHAYESLLPRYGIPLTEEPVDLDSIFGRTAPGILEIGSGMGETTAEIARQHPEKDFIAIEVHAPGIGSLLGQIEKHRLTNLRIIPHDAKLVLQQMFTSESLDGIHIFFPDPWPKARHHKRRLIQPDFVSLLCDRLKPGGYLHIATDWEDYATHILHVLRSEERFVNTAVDYAARPAYRPLTKFEQRGMKLGHTIRDIIFTRTALEHHHHHH,soluble
16,MGYHGGTMRVLGRRIYWRWYGEVLLEGGVTLRMTGDVAKWLRPGDRVRLRTEFKKPVLGFDEYALEAVFPLWPPFAKTLEHVRESPFGGKAYRYRLKVREATYEGDYEAIAELEQFHYASEKEVVALWVCTQCQKTLPANARPLCDCGGEARLKEIRGSTPASRFLVLELAERLPFEPRILGYLRLDPPIPRMHRRTPEGVERDIRERIFPRDWFHPTYEGGADWQRALDRVNTAAARIARVVVHPDYRSEGFGALLVRVALEWAKERGAPEARREKHLVYTIAQMARYHPFFEKVGFRYLFDTASGRPVLFYPLTEEAEAHLERFLREDPYAKAHGGRLYKPRFGRVPGLPGPIRLRGVHKAYRSHLDLEGLSREVQEALLAFGVKARVVERAVLRGASLEIPPGSLVVLAGASGAGKTTLLRLLLGEAPDAGEVAVPPGRRVAYIPGEREVDLGEDPILEAVYRRLKDVGAAIEVLNRVGLSDAVLYRARPHELSTGQRERFRLALLLAERPDLLLIDEFAAHLDVPTARRVALGLGKLCREAGVTLVAATHRPEVVAALDPDLLVYVGYGGLTTVPRRGPRT,soluble
17,MHDALRAYIEKYASEKISDADFEEVKKAFTFKRYKKGQFLLQEGEVSKYTAFVLKGSMRQYSVDAKGTEHIIHFGIENWWVGDRESSTMLTPSNYNIDAIEDTEVLLTTSEDLQQLTAALPVIGKMVNTMNQRNFIASQKRIHDALSLTAEERYLELLKNHPDFLQRFPQTMLASYLGITAETYSRIRKKALK,not soluble
